Source: a protein production outcome set (Wang et al. 2014)

Assay: label from the status in PepcDB records

| Sequence | protein production |
| --- | --- |
| MTDLWLTLVNSVNAALGEVHVMTAWEALAVVLAMAYLLLAMKASVWCWAAAFTSTAIYTVLFWKVALLMESMLNIYYMGMALYGYWLWTQGGDKHQGVKVTTWPLKTHLKLIAATTLVSLGIGHGMATFTQASFPYLDAATTCFAVMTTYLVAKKVLENWLYWVVIDLVSIYLYLSKGLMLTSLLFVLYVGLAVVGYFLWRTALAESRLNLNGERAAKLLG | failed |
| MTDQTRTSPLVNRLLKMISLCALGYLLIILAIIIPRGIQSVEQQKQELEEKLALSLSNSAAIALYVNNYDIASEVMDALLLHQEINAVKLASVDGIVFERTTIPSTYKEQNYWSDANRYRLDSPVDGNLIGYLMIHEDHQVIRQQAINQILDQIAVVLIQFLVTFIALIWIVRRLVGKPLTDLSQALSEVRPDHDRKVAVAAEDHHNEIGLVAKSINEFIDASHQALLRERELRQQIERWESYYRTIAEQDTLTGLKNRLGCEKFVLRKQRASTTMVLLLIDLDGFKQVNDTLGHAAGDEVLREIAKRFYALAQTHFSDFVVGRLGGDEFAIYIPLDEFVAESIERFAAQLIESSSEPIGLGQQSAQVGCSIGISHMNSLHIDLEKLLLQADKAMYWVKYRGKHGYHIYRMGEEILPLPSAKELKQDQFR | failed |
| MTDRAPADKYVVWVVLALSSVGVVAVYSAVTYLAEVRAGTEPVHFLLRHLARVGIALGAMGVVSLIDYRTLARYSRLALVGTLLLLVAVKVVGLFSGGADRWLQIGGVGFQPSEFARVALVLYVAVLLVQKQDYVKSFSRTFLPVLFWVGVTVGLIALDDLSTALVLLLGVLLMSFVGRVSVLQIGGLAVLGGVMAFGVLSTSPDRAARLEAYLGMDLFPNTDTEQVMDARGEQYQSRQARMAFAAGGFTGVGPGKSVQRDFLPEPYNDFIFAIIAEEYGIFGALALLTGFFVLLFRGYLRIARDAPDPLGLILAVGMTTLVVTYGFVHAGVASGLLPVTGLPMPFVSYGGTSLLANGIMIGVLLNISRHAGQRSAERV | failed |
| MTDRDSLEPISRDELQARVAAGSVLVLDVRPAMEYAAGHLPGAVSIPLDELAERLDELPSGIDIVACCRGPYCVYAYDALELLRPNGFSARRLDGGFSEWLAADLPVVRTLEHHHHHH | not failed |
| MTDRLERKLAIAANQDKADLLIKNGQIVDVFQLETFEGDVVIADGEIVAISDPGTYEAHEEVDAKGAFIAPAFIDGHVHIESSMVAPEQFAKVVVPHGVTTVIADPHEIANVAGVQGVEYMLDASEGIPLDVKMMVPSCVPATPFEHSGARLTAEEVAELFRDPRIFGLGEVMDYPAVLTRDQEMMAKLKAAHSEGRIVDGHGAGLDSVALNAYTAAGIGNDHEAVTPEEAKARLQRGMYLLIREGTAAKDFDALMKAITPMNSRRALFVTDDKHLDELVEEGSIDHHVRKAIQIGVNPLQAIQMASLNAAECFKLAKKGAIAPGFTADLLFIEDLQSLAITHVFKNGTCVAKNGKLIVPIRETVQPPQRLLESVNMKLVTKEQLELSLQSDEEAHLIQIQPGSIVTKHIREKVAVKDGVFIPSVARDQLKLVVAERHHKRGTVGVGIVKGFGLTKGAIATTVAHDSHNIVAVGTNDEDLLAAIKELENIQGGMTIVKDGKVLVSLPLTIGGLMSDQSYDVVCEQIKSVDAAIGALGFVGDFNPFLTLSFLALPVIPEIKLTDQGLFDVTSFSFIDQQVYAEETN | failed |
| MTDSTTELTPAAPVSWPDGKTCAVAFTFDVDAESPLLTTDPAFADRMGTMSHQAYGPLVGVPRLLGILDEFNVPGTFFVPGYTAHRHPEPIRSIARAGHEIAHHGYLHESLVGADEDTERKILTRGIEALEEVAGVHPVGYRAPMWEMNWHTPKLLAEFGFLYDSTLMDSDHPYELAVGDGSLVELPVSWALDDWQQYCFVPDFSGTGLIETPAKAIELWRAELNAMRDIGGAWVLTNHPFLSGRPGRAAALREFIAEVCAMDDVWVAGMSQIAEHVRAQKLTPRTLTRPELTPVAE | not failed |
| MTDSTTLQQPAGANNLYGGLLSAQGLDLDQFETIHTQVQAWKTTAGTDVKFVEARELPIVDVILRFKAGTTQDTLYPGLAALTLSMLDEGSQAYTAAQQAEHLERLGAVMEKQVRLEHATLRLRSLSPPSLLDPALAVFTDLVAHPVFHPMALTRIKRQLLQNHASRERLPILRARSEVFRHLFNGHPYGNPLGSTAQGIEAITPEDLRAFHQRAYSASNLEMVVVGDLSPGQAQAISQQISQALPQGWSATELPAAPSAPSATIAVEQAGASSAILLALPMNVPANDPEFLALALASAVLGEGLESRLMVELRQRRGLTYGVHTHVLPLSAGGLFTVEWEVAPQHVQGTQALVETLLQAFIDEGPTQLELQLARKQLEGQLLRGIAQNRQLATLLTEVTHQRQPADHLDTYSARIAELTPADVRAVMQRRLALSHKVLVSVGPGVQQQPLPAPDQ | failed |
| MTDTNTLLVTSLEEGIGKTAITLALATRAHDAGYDVGYMKPKGTRLRSAVGKTRDEDPMLARELLDLETDLHDMEPIVYSPTFIQEAIRGREDPDDLRERLQEGIETCSDGTDMLLVEGSSDLATGSIVDLTDIDIAELLDARVLLVTGYDTPSDTDEILSAAEAIGDRLDGVLFNGVTDATVDELADDVVPFLEGEGIPVHGILPRDRSLAGVTVADLARNLGADILTGDANTDVHVERFSVGAMSGSSALERFRRTRDAVVVTGGDRSEVQTAALEASGINALLLTGGFQPASAVIGQAAEKNVPVLSVQSDTRTTIDRVEEVLRTGQTRNEATVDRMRTLLDDGVDVESLLSVDLLEHHHHHH | not failed |
| MTDTTQRIFLSYAGPDQAWAEWVGWQLQQAGHQVELDRWHWRTGDDFVQKMNLALGKADAVVALFSRHYFEPKRWTREEWSAAVALRGRLVPVAIELLNDDDIPALLAGTLRTDVHGLDEAAATSALLEAVHGPVPPTGPVDFPGAASADAPTAPDAQRPRLPSSVGLPEVWNVRRRNPDFSGRETVMGQLRTGLLSGRQAVVQALHGMGGIGKTQIALEYAHRFASQYDLVWWVDAEQADQLPVRYTELADRLGVAKSDAGSEPNARALLQHLRTRHRWLLVLDNAEHPDQIEPWLPEGPGHVLITSRNPDWHGIAHQSDLDVFTRTDSLAYLKGRISGMTTEHADLLAQDLGDLPLALAQASGVLRSGMTLDRYRRLLTTDTARLLQESDVRDHPAPLAATVGIAVTRLADDGHADAVALLRLGAFLGPEPIPTAWLETARPRLATIPGDPDDPMWLRNALQPLGRFGLARTDYDAFQIHRLTQAILRTQTGPDPVVAIRDDVTAVLAAVDPGDPRSPADWPAWASLTAHLTAPHVTTALAHQAALRATFSKAAHFLICSGLPRAAHDLSAALHQAWSTDLGPDHPDTLTCAQFLGHATVDLGDYAKGRLIIEDTLVRRRRVLGEDHPDTLRSANDTSTNLSLLGERVEARRMHEDVLARRRRVLGEDHPDTLTSAGNLATILNKSGEYVEARRMQEDVLARRRRVLGEDHPDTLTSAHNLAGLLNSLGEHAESRRMQEDVLARRGLVLGEDHPDTLSSASNLATSLNSLGEHAESRRMHEDVLARRGLVLGQDHPDTLSSANKLATSLNGLGEHAEARRMHEDVLARRGVVLGQDHPSTLASAGNLATTLNSLGEHVEAHRMQEDVLARCRRVLGQDHPDTLTSASNLARTLHTLRQYSEAAELLKEVRASYVRHFGAKHPKTELATRNLATVLIAMGKTHEAQQLTGRKSDKGKRRFGRKRR | failed |
| MTEAIVASVATEPSLRPLAVLLVPLVTVGLIFLSKNRPNIREAWSILAAVTMFGIVASMVPDVLNGRVHETDLGFFVEGIELVLRADGLGMLFALVASGLYVVTAIYSIGYMRGHHEPFQTRFFAMLCASVGAALGVAFASNLFMLLVFYEVLTLATYPLVAHDESEKARVSGYKYLAYALSGGLAVFGGMLAVYWLTDPSTITFTRGGIEGLATVAAADPWAARGAFALLAGGFAVKAAVMPLHSWLPSAMVAPTPVSGLLHAVAVVKAGAFGVARTIIDVFGPETVRQIGMGLPLTIAAGATILIASLFALRQDNLKARLAYSTIAQLSYIVLGLSLLSGMGLMGGLLHIPAHAFSKLTLFLCAGALYVELDVKYISEMAGVGKRMPVTMGAFGLASFSMAGIPLMAGFVSKWHLIWGGAEAGYLLVAPLLVLSGVLNVAYFWPIIYTAFFESEDDADQKPVLDNPFGGVFDDDAYLTDGGVSSDDQHEDDSHDDHHDDGHHARPELPPAGGWDRSNWYGGETTLLLVAPLVTTATLMFIFGVAPDYIVFFDLIEGIVDGALEVDN | failed |
| MTEARKIPKPSFPYGSPGELNSFLPYLLTRITHIWSSELNQALASEKLPTPKLRLLSSLSAYGELTVGQLATLGVMEQSTTSRTVDQLVDEGLAARSISDADQRKRTVVLTRKGKKKLAEISPLINDFHAELVGNVDPDKLQTCIEVLGEILKGKTDY | not failed |
| MTEEQFSSYHPPLPPTTEEDRFSWLRLLRSRRVGPTTFRRLMHEHGTAQNALAALPEVARAAGVEGYEICPPGVVEAELKAAKAAKARLLCLGDADYPSHLAGISDAPPLLWLLGDPALLRRPMIALVGARNASSLGTRMARALAQDLGTAGFVVVSGLARGIDTAAHLAALPSGTIAVMAGGVDTVYPAENTHLAADIAQHGLRLSEQPMRLTPQARHFPRRNRIISGLAQAVVVVEAAAKSGSLITARDALDQGREVLAVPGHPFDARAAGCNMLIRDGAHLVRNAEDVITALPALTAPQPQPDLCDLMQQPAPPAKRSLRETVALHSLILDRLGPSPVAEDQLIRDLAASPGEVAPVLVDLELEGRINRQAGGLLSRVN | failed |
| MTEKFGAKSTADEVLSGVDLRGKRFLITGVSSGIGLETARALVAHGASVVGAVRDRAKAERATASVRDAASQGGGTLELTELDLASLQSIRACADRLLADGRRFDSIIANAGVMATPFARTADGFELQFGTNHLGHFALVNRIASLLADNGRLVVLSSQAHRVADVDLDDPNFERQAYDPWVAYGRSKTATSLFAAEFDKRHRDRGIRAASVMPGNSLTDLPRHLRQEDLQGLFETVGKARAEAGLPPAELKDIPQVAATSVWAAVVADKDEIGGHYLDDCAVAPINDTPNPFADGVRSYALDADKAKRLWAKSEEWIGANTAAI | failed |
| MTELNFHLLPIISDRFTTTTTTSPSFSSHSSSSSSLLSFTKRRRKHQPLVSSIRMEQSRSRNRKDKVVVILGATGAGKSRLSVDLATRFPSEIINSDKIQVYEGLEITTNQITLQDRRGVPHHLLGVINPEHGELTAGEFRSAASNVVKEITSRQKVPIIAGGSNSFVHALLAQRFDPKFDPFSSGSCLISSDLRYECCFIWVDVSETVLYEYLLRRVDEMMDSGMFEELSRFYDPVKSGLETRFGIRKAIGVPEFDGYFKEYPPEKKMIKWDALRKAAYDKAVDDIKRNTWTLAKRQVKKIEMLKDAGWEIERVDATASFKAVMMKSSSEKKWRENWEEQVLEPSVKIVKRHLVQN | failed |
| MTEPATAESAPAALREMRWWDIDPVLRMERELFPEDAWSRGMFWSELAHARGPGATRRYLVAEEDGHVVGYAGLVTSGEQADVQTIAVARDHWGTGLGARLLTELLRAATDFECTEVLLECRVDNTRAQRLYERFGFEPIGFRRGYYQPGNVDALVMRLTDPSTSVPGTERGTENHG | failed |
| MTEQSAHEKYEFKKKLEGLRDKKGRSTELISLYIPPDKQIFDVTNQLKDEHGQAANIKSKLTRTNVQGAIESLLSRLRYLDKVPENGIVYFTGAVDIGANKTSMESEVIVPPDPITVYKYHCDSSFYLEPLEDMLKDKNTYGLLVLDRREATIGLLVGKRIQPFRNLTSTVPGKQRKGGQSAHRFQQLRLIAIHDFYKRIGDAASEVFMAVDHKDLKGVLIGGPSPTKEEFHAGEFLHHELMKKILGLFDTAYTDESGLSELVNAAGEKLQDLELMGQKNAVRDFFKELIADSGKVAYGESQVRANLEINSVDVLLLSEDLRAERVTTKCSVCGYENKWTRRWKPGEPAPAAGNCPKCGSSLEVTDVTDIVDEFSELADKSNAKVVFVSTDFDEGSQLMNAFGGIAAILRYNTGV | failed |
| MTERGLLIVLSGPSGVGKGTVREAVFKDPETSFDYSISMTTRLPREGEQDGVDYYFRSREVFEQAIKDGKMLEYAEYVGNYYGTPLEYVEEKLAAGVDIFLEIEVQGAMQVRKAMPEGIFIFLTPPDLSELKNRIIGRGTESMEVVEERMETAKKEIEMMASYDYAVVNDVVANAVQKIKGIVETEHLKTERVIHRYKKMLEGLQ | not failed |
